Test results published in the nanobody polyreactivity screen of Harvey et al. (2022).

Assay: yeast display, Sf9 membrane polyspecificity reagent, FACS + sequencing; frameworks hold sequencing errors
Summary of the method: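 In a synthetic yeast display library (Saccharomyces cerevisiae BJ5465), nanobody expression was induced with galactose for 36–48 hours. FACS gates were set low and high (top ~1%) using anti-HA fluorescence for expression and streptavidin fluorescence for binding of the Sf9 membrane reagent. Each polyreactivity label is drawn from the gate of origin.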

| Sequence | polyreactivity (PSR sort gate) |
| --- | --- |
| QVQLVESGGGLVQAGGSLRLSCAASGRIIGLYALGWYRQATGKERELVAAISSAGSTYYADSVKGRFTISRDNAKNTVYLQMNSLKPEDTAVYYCAKSRYRGYDYWGQGTQVTVSS | low polyreactivity |
| QVQLVESGGGLVQAGGSLRLSCAASGRIIGYYAMGWYRQAPGKERELVAAISRRGGSTYYADSVKGRFTISRDNAKNTVYLQINSLKPEDTAVYYCNADRVLTRPRYDYWGQGTQVTVSS | low polyreactivity |
| QVQLVESGGGLVQAGGSLRLSCAASGRIIGYYAMGWYRQAPGKERELVATINYSGGRTYYADSVKGRFTISRDNAKNTVYLQMNSLKPEDTAVYYCNARESGRGSHDDYWGHGTQVTVSS | high polyreactivity |
| QVQLVESGGGLVQAGGSLRLSCAASGRIILLYTMGWYRQAPGKERELVAAISRSGGITYADSVKGRFTISRDNAKNTVYLQMNSLKPEDTAVYYCAKGGSSHAKGHFDYWGQGTQVTVSS | low polyreactivity |
| QVQLVESGGGLVQAGGSLRLSCAASGRIILVYAMGWYRQAPGKERELVAAISSGGSTYYADSVKGRLTISRDNAKNTVYLQMNSLKPEDTAVYYCAARTAVGPIRSYWYDYWGQGTQVTVSS | low polyreactivity |
| QVQLVESGGGLVQAGGSLRLSCAASGRIIPYYAMGWYRQAPGKERELVAAISSSGGRTYYADSVKGRFTISRDNAKNTVYLQMNSLKPEDTAVYYCAAGFPTFGWDKVRFIMYYWGQGTQVTVSS | high polyreactivity |
| QVQLVESGGGLVQAGGSLRLSCAASGRIIQYNAMGWYRQAPGKERELVAAISWRSGRTYYADSVKGRFTISRDNAKNTVYLQMNSLKPEDTAVYYCAATSRTSWYGYWGQGTQVTVSS | high polyreactivity |
| QVQLVESGGGLVQAGGSLRLSCAASGRIIRGNAMGWYRQAPGKERELVAAISVRGGNTRYADSVKGRFTISRDNAKNSVYLQMNSLKPEDTAVYFCKKRSYLPEMEYWGQGSQVTVSS | low polyreactivity |
| QVQLVESGGGLVQAGGSLRLSCAASGRIISSNAMGWYRQAPGKEREFVAAISWRTGSTYYADSVKGRFTISRDNAKNTVYLQMNILKPEDTAVYYCNKRNGSYCYPYYYWGQGTQVTVSS | high polyreactivity |
| QVQLVESGGGLVQAGGSLRLSCAASGRIISVYAMGWYRQAPGKERELVATITGGNTNYADSVKGRFTISRDNAKNTVYLQMNSLKPEDTAVYYCANQFLPSGVYYEYDSWGQGTQVTVSS | low polyreactivity |
| QVQLVESGGGLVQAGGSLRLSCAASGRIITAYAMGWNRQAPGKEREFVAAINVSGGSTYYADSVKGRFTISRDNAKNTVYLQMNSLKPEDTAVYYCNADYYYYDIYWWKMDYWGQGTQVTVSS | low polyreactivity |
| QVQLVESGGGLVQAGGSLRLSCAASGRIITINAMGWYRQAPGKERELVAAITGSAASTYYADSVKGRFTISRDNAKNTVYLQMNILKPEDTAVYYCAVDRRPYSGHGYDYWGQGTQVTVSS | high polyreactivity |
| QVQLVESGGGLVQAGGSLRLSCAASGRIITKYNTMGCYRPATGIEMELVAAINRSAGSTYYADSVKGRFTISRDNAKNTVYLQMNSLKTEDTAVYYCAAKRGASYGSSLGAPRRHYDEYWGQGTQVTVSS | low polyreactivity |
| QVQLVESGGGLVQAGGSLRLSCAASGRIITLYAMGWYRQAPGKERELVAGISRSGGSTYYADSVKGRFTISRDNAKNTVYLQMNSLKPEDTAVSYCNAVPIYYAWRRNKPFDYWGQGTQVTVSS | low polyreactivity |
| QVQLVESGGGLVQAGGSLRLSCAASGRIITYYAMGWYRQAPGKERELVAVISSVGGTYYADSVKGRFTISRDNAKNTVYLQMNSLKPEDTAVYYCAVGKIWSRRSSTSRFGYWGQGTQVTVSS | high polyreactivity |
| QVQLVESGGGLVQAGGSLRLSCAASGRIIVPYGMGWYRQAPGKERELVAAITTGGSTNYADSVKGRFTISRDNAKNTVYLQMNSLKPEDTAVYYCAVDWYPQLIYSFNSELEYWGQGTQVTVSS | low polyreactivity |
| QVQLVESGGGLVQAGGSLRLSCAASGRIIWGYAMGWYRQAPGKERELVAGITYSGGSTYYADSVKGRFTISRDNAKNTVYLQMNSLKPEDTAVYYCAAAKSYRSGSWYEYWGQGTQVTVSS | high polyreactivity |
| QVQLVESGGGLVQAGGSLRLSCAASGRIIWINAMGWDRQAPGKERELVATITKRGGRTYYADSVKGRFTISRDNAKNTVYLQMNSLKPEDTAVYSCNTGHEARHSQYQGGVYQDMGYWGQGTQVTVSS | low polyreactivity |
| QVQLVESGGGLVQAGGSLRLSCAASGRIIWPYAIGWYRQAPGKERELFATITSGGRTNYADSVKGRFTISRDNAKNTVYLQMNSLKPEDTAVYYCIADHWLYYGAGYDYWGQGTQVTVSS | low polyreactivity |
| QVQLVESGGGLVQAGGSLRLSCAASGRIIYAYAMGWYRQAPGKERELVAAITIGGNTNYADSVKGRFTISRDNAKNTVYLQMNSLKPEDTAVYYCNARNYYYPWRGYHVVGSNDLGYWGQGTQVTVSS | low polyreactivity |
| QVQLVESGGGLVQAGGSLRLSCAASGRIIYGNTMGWYRQAPGKEREFVATITRSGGSTYYADSVKGRFTISRDNAKNTVYLQMNSLKPEDTAVYYCNAQPSVYYGRWGLNYVYWGQGTQVTVSS | high polyreactivity |
| QVQLVESGGGLVQAGGSLRLSCAASGRIIYSNGMGWYRQAPGKERELVAAISSGGSTYNADSVKGRFTISRDNAKNTVYLQMNSLKPEDTAVYYCAADIDYERDRYDYWGQGSQVTVSS | low polyreactivity |

| Sequence | polyreactivity (PSR sort gate) |
| --- | --- |
| QVQLVESGGGLVQAGGSLRLSCAASGRIIYTYEMGWYRQAPGKERELVAAISGSGGSTYYADSVKGRFTISRDNSKTTLYLQMNRLKPEDTGVYYCNGAYYGYENLYKRGYWGQGSQVTVSS | high polyreactivity |
| QVQLVESGGGLVQAGGSLRLSCAASGRILAGYAMGWYRQAPGKERELVAAITRGGTTYYADSVKGRFTISRDNAKNSVYLQMNSLKPEDTAVVYTVSSAQYDYCGQGTQVTVSS | low polyreactivity |
| QVQLVESGGGLVQAGGSLRLSCAASGRILAGYAMGWYRQAPGKERELVAVISVGTGSTYYADSVKGRFTISRDNAKNTVYLQMNSLKPEDTAVYYCAADPGPYKELEYGYWGQGTQVTVSS | low polyreactivity |
| QVQLVESGGGLVQAGGSLRLSCAASGRILAIYAKGWYRQAPGKERELVAGITYSAGSTYYADSVKGRFTISRDNAKNTVYLQMNSLKPEDTAVYYCAALEYNSHRYGYDYWGQGTQVTVSS | low polyreactivity |
| QVQLVESGGGLVQAGGSLRLSCAASGRILASYAMGWYRQAPGKERELVAAIRYRGSTSYADSVKGRFTISRDNAKNTVYLQMNSLKPEDTAVYYCAAKWHVRGRGARYRYDYDYWGQGTQVTVSS | low polyreactivity |
| QVQLVESGGGLVQAGGSLRLSCAASGRILASYAMGWYRQAPGKERELVAAISRSGGSTYYADSVKGRFTISRDNAKNTVYLQMNSLKPEDTAVYYCAAKYPQKTPVNSYGILDSWGQGTQVTVSS | high polyreactivity |
| QVQLVESGGGLVQAGGSLRLSCAASGRILAYYAMAWYRQAPGKERELVAAITSGGGSTYYADSVKGRFTISRDNAKNTVYLQMNSLKPEDTAVYYCAADAYVSSQPMDYWGQGSQVTVSS | high polyreactivity |
| QVQLVESGGGLVQAGGSLRLSCAASGRILAYYAMGWYRQAPGKERELVARISGSGTSTYYADSVKGRFTISRDNAKNTVYLQMNSLKPEDTGVYYCAATYYRGGRSNGPAWWHEYWGQGTQVTVSS | high polyreactivity |
| QVQLVESGGGLVQAGGSLRLSCAASGRILAYYVMGWYRQAPGKERELVAGINWSGGSTYYADSVKGRFTISRDNAKHTFYLQMNSLKPEDTGVYNCAARFVGVRDGYYYWGQGTQVTVSS | high polyreactivity |
| QVQLVESGGGLVQAGGSLRLSCAASGRILDAYTMGWYRQAPGKERQLVAAISASGVSTYYADSVKGRFTISRDNAKNTVYLQMNSLKPEDTAVYYCAKDYYQQTGFLEYDYWGHGTQVTVSS | low polyreactivity |
| QVQLVESGGGLVQAGGSLRLSCAASGRILDGYAMGWYRQAPGKERELVAAISSRGGRTYYADSVKGRFTISRDNAKNTVYLQMNSLKPEDTAVYYCAADFSKSRRPIRFYYWGQGTQVTVSS | high polyreactivity |
| QVQLVESGGGLVQAGGSLRLSCAASGRILEGYAMGWYRQAPGKERELVAAISFSTTTTYYADSVKGRFTISRDNAKNTVYLQMNSLKPEDTAVYYCAADSQQSDYDYWGQGTQVTVSS | high polyreactivity |
| QVQLVESGGGLVQAGGSLRLSCAASGRILFWYAMGWYRQAPGKERELVAAISSSGGSTYYADSVKGRFTISRDNAKNTFYLLMNSLKPEDTAVYYCAADGVVDYGYWFVVEYEYWGQGTQVTVSS | high polyreactivity |
| QVQLVESGGGLVQAGGSLRLSCAASGRILGFYAMGWYRQAPGKERELVDSINWSGTRTYYADSVKARFTISRDNAKNTVYLQLNSLKPEDTAVYYCAAERYPYGVTYSKLDYWGQGTQVTVSS | high polyreactivity |
| QVQLVESGGGLVQAGGSLRLSCAASGRILGPNAMGWYRQAPGKERELVAAINSGGSTNYADSVKGRFTISRDNAKNTVYLQMNSLKPEDTAVSYCAPDKARVAGYGVEYDYWGQGTQVTVSS | low polyreactivity |
| QVQLVESGGGLVQAGGSLRLSCAASGRILGRNAMGWYRQAPGKEREFVAGISYSGTSTYYADSVKGRFTISRDNAKNTVYLQMNSLKPEDTAVYYCAVYTGRQPRVSGKYYYWGQGTQVTVSS | high polyreactivity |
| QVQLVESGGGLVQAGGSLRLSCAASGRILGRNAMGWYRQAPGKERELVAAISSGGNTYYADSVKGRFTISRDNAKNTVYLQMNSLKPEDTAVYYCNTGTYKDWGQGTQVTVSS | low polyreactivity |
| QVQLVESGGGLVQAGGSLRLSCAASGRILGRYAMGWYRQEPGKERELVASIRGGGSTNYADSVKGRFTISRDNAKNTVYLQMNSLKPEDTAVYYCAKDYDVRVYEYNYWGQGTQVTVSS | low polyreactivity |
| QVQLVESGGGLVQAGGSLRLSCAASGRILGYYSMGWYRQAPGKERELVAGITSGGSTYYADSVKGRFTISRDNAKNTVYLQMNSLKPEDTAVYYCATVHGVYQRRYYFWGQGTQVTVSS | high polyreactivity |
| QVQLVESGGGLVQAGGSLRLSCAASGRILIRKAMGWYRQAPGKERELVAAINRGGGSTYYADSVKGRITISRDNAKNTVYLQMISLNPDDTAVYYCAADRKAGYSRVDGDYWGQGTQVTVSS | low polyreactivity |
| QVQLVESGGGLVQAGGSLRLSCAASGRILKWYAMGGYRQAPGKVRELVAAISARGGSTFYADSVKGRFTSSRDNAKNTVYLPMNSLKPEDTAVYYCAKRWPYTMYYWGQGTQVTVSS | high polyreactivity |
